Test results taken from a protein production outcome set (Wang et al. 2014).

Experiment: label from the status in PepcDB records
With “MTQRTAFTLTVSPKIPARLSRLEELSNNLWYSWDRATRALFSRLDQQLWEAVGHSPKAFLRRVDESLLLQAAEDLTFLSHYNSVLSAYDSYHSEPSRYQAINGIEARDQVAYFCFEFGFHESLPVYSGGLGILAGDHCKAASDLCLPFVAVGLLYRQGYFFQTIDGQGNQQPVFCDSDFEDLPVKPALHDDGSEVRISVRFPGRVVTVKVWRAQIGHVGLYLLDTDLPDNSEYDRLITHQLYGGNKTMRIEQEIILGVGGVAALRAMGIKPTIWHSNEGHAAFMMLTRALELVRQGLDFASATEAVAVNTIFTTHTAVPAGHDHFPEDMMHRYFEDFYHELKISREEFMALGHTPGNHDFNMTALAIRMSRMHNGVSRIHRDVSANICHDMWPQIEPEENPIDYVTNGVHVPTFLAQEWTDLFDRRLGSQWRSKQHAPEFWSRIHDIPDHIFWSVRQSLKSQMFYGIRARLTEQNLRNHGSEAHLERLLRFVDPINPNILTLGFARRFATYKRATLLFQDLDWLRKLLLDAARPILLIFAGKAHPADLPGQALIRHIHQVADMPEFRGRILLVEGYDLRLARRLVSGVDVWLNNPIYPLEASGTSGMKAGINGTLNLSILDGWWGEGYDGKNGWGIKPVSENMEDSLRDAEESRAFYEILQDQVIPLYYDHSKFGYSADWVRMAKNSMVSLLPRYGTGRMVGEYVQKFYAPASRQGTGYSQDNFAIARSIAAWKARINAAWDGVSVRRLDTPGKQLEFGSTMHFKLAVKLNGLQPEDVVVELLLSRQYNKTRLSQFKHFRLECTGPLGSHEHQFELNHVPELCGRQQYYLRIYPYHPLLTHPLEMGKMVWLLEHHHHHH” the protein production was “failed”. In the case of “MTQSPYWQRIAAKAQAAQRPFFSLAPMEAVTGSVFRRVVMRAAAPDVFYTEFTNALSITHPKAKFTTRGRLYVDEAESPRPIVQLWGNSGEDFTKAAHEVKNQGYQAIDLNMGCPDMAVIKNHSGSDLIRHFDRAKEVIEGARQAELPVSVKTRLGFDDVHEYETWIPFLLQQQVPVLTVHVRTKMEMSKVPAHYELIDNLVQMRDTLAPATLLQINGDILDYQAGLKLAKAHPGVDGIMIGRGIFQNPYAFEPIPQPHSTRDMLELLRYQVDLYDQFIGLGLQGHFAPLQRFFKIYVRGMRHAAELRNELMQTKTTDDVRAIIDRLEAKLPAD”, the protein production is reported as “failed”. In the case of “MTRAPPRRCTSPMTPTAPSPLVWRDDGLPQSSLYGDVYFSSVDGLAETRAVFLAGCGLPERFAERRDFVVGELGFGSGLNIAALLDLWRREKPPGGRLHIFSIEAHPLSRDEAARILAHWPELGEAAQVLLDHWPGRARGFHRVDLPGFDAVLDLAVMDVVEALEAWDGLADAWFLDGFSPALNPAMWRDEVLAAVGARSAPGARAATFTVAGAVRRGLSAAGFEIAKRPGFGRKRERLEAWRPGVRPVAQRPETLAIIGGGIAGAALARAARAAGLEVTVIDDADAVAASGNPAALVTPALDAGGGPRAALYAQALSRAVTLYEAQPDAVLAREVLQLAAGERDPARFATVADQDLFEPGDMRTLEAEDTRARLETPTPALAMAGARVIAPAEVTAAWAGPVVRRRVAKAERDGEGWRLLDAAGEIIARADRLALAGGAAGADLLAEAPLRPVRGQASWTRGHGAPATAFGGYAIPTREGLLFGATHDRDDTQTNVRSEDHARNLATLAKGLPALAARLAGSTFEGRAAIRATTPDRLPLADLREDGVIVLTGLGSRGFCLAPLLAEHLVARLLDVPSPLPRQLSHLLKLTRFDSPVTRSRL”, the protein production is reported as “failed”. With “MTRASLDKQPHEVASMFDDVAERYDLTNDLLSLGQDRVWRREVAKAVDARPAQKILDLAAGTATSSLPFARAGAYVVPCDFSLGMLRVGKKNHPWLPLTAGDATKLPFKDDTFDAVTISFGLRNVQDTDTALSELYRVTKPGGRVVICEFSHPTWAPFRTVYTEYLMRALPPVARAVSSNPDAYVYLAESIRAWPTQPELAERLRKAGWSKVAWRNLTGGVVALHRGFKAV” the protein production was “failed”. In the case of “MTREMARLLISPSNAWPRLRQDYDHHPFAFLVPLLLLPLLPAACLFIGTTQVGWSLPGNDSVQHLSSGSALLLATMCYLGFVAGVVIMGLFVRWVLFRTPSRPSVPGSLTFTTAIAVPLMLAGIVALVPWRILLLLAAAAACAYSVRLLFTGLPLFMRMQERQTLFYAFCILGVGFLTLLTTAFIFIELWGQSLAGSGEYLR”, the protein production is reported as “failed”. With “MTRFWTRLIVVLTVILGVNYVAWRWMASLNWEAWWIAVPLVIAETYSLIDVMLFGLTVWNIKFRKPPPPPPADATVDVFITTYNEPLDLVMTTALAAKEIRWPHSTWILDDGDRPEMRELAESNGIGYVTRGADWTPDMPRHAKAGNLNNALMLTSGEYLLILDADQIPEPDILDKTLGYFNDDKVALVQTPQYFINVPADDPLGSQAPLFYGPIQQGKDGWNAAFFCGSNAILRREALMQLGLVGYVKATEKSVRRALAASRTAIRKARRSPEAENPLVEQMLNEVEAATESAQKELEAGASLSEITYRVRRQVDDAVRTLVAADFSALQSDLEEIAAMELAHVGESGVTTVATDAVDRMSGRDWSPLGALESVHAVLDAISVERTDEAQPIMPLATISVTEDMATAMRLHGLGWKSVYHHEILANGLAPEDVKTMLTQRLRWAQGTMQVLLRENPLVQRRLTWGQRLMYFSTMWTYLSGFAAVVYFAAPIIYLTLGILPVNSISSDFFIRFIPFMVVNQLLFLVAGHGIPTWRGQQYSLALFPTWIKACTTAARNVWFGRPLGFAVTPKARQSGGPSWSLIRPQIIVAVLLAVALIVGLIRLLAGMSEPLGTLVNVAWVAFDLVVLSVLVKAVLYKGFVPEVVGPERPEERNADAV” the protein production was “failed”. For “MTRLRGTLSVCIDAFPAWTRPLALAFVVYALSFGMRMLEYPAWQNPEYMLDGEYLLATHDAYHWIAGAEGFEFGAGHPMSELVRLAAAFTGTTPAAVGFWLPPVMASLVAVGVFGWAAALGGVEAGVCAGVLASLAPGFLARTLLGYCDTDLVTLLFPLLMGLGPAFWMARFMFTPLQVARRLLARRTGTSDVVPDAVAVMMTSRGEADDDWHGGALSPRWLALLAGSGLVGSWGAEWHSLFPYLIRYDVVLLFGCICVFGRPGMRRALLVGGLAYALPMLVGAWGLLFALALGWGLHRADARFMAFVRGRALPVAGWCAVAVLLFDPDVFRMFLNSIAGYVKRSGDPSPGAGGDDPLVYPSVAQSIIEVQDLSLSEVLSYFHPWLWVALAGLGGFVPLLLARPAAFFLLPLGVLSFLSVKLGGRMVMFGAPVLALGFALPMVWGVQRVLRHDLRTGWVRLALSAVLLVIVATPFVDLLPAMTQGPIINKRHAEALRHIRTATPEDSMVWIWWDWGYSAHHFAHRRTIADGASHGGPSLYVPAAVFSTANPRFAWQLIRYTAERGGIPGSVFEGMGGAQAQELVHRLGIEKMTFADAPRQYLVVSYDMLRLGFWITNFGTWDFLSREGKGYAISSIPQQLSYSLDTGEVQVQGNTTGVLASTIDVFDEGQLERRDYIVRQGGSGNAIADYAARQRNIESRRNIHFLFNKVTGEKLVLDDRLYNTVMVQLLLCSPDDTRFAPYFKLIYDNVYARVYEVR”, the protein production was “failed”. For “MTRNGHERAKPLRPGDPTELGAYRIVGRLGRGGMGTVYLGKDTAERLVAIKLIRPDLSEDPAFRQRFAREVAAARRVARFSTAAVLDAQLEGDPLFIVSEYVAGPNLAEAIQADGPMYGGTLESLAMGVAAALTAIHGAGVIHRDLKPANVLLSSVGPKVIDFGIARALDDDTAVTRSSQLMGTPAYLAPELIAGEPPTPMSDIFSWGCLVAYAGTGRAPFDAPTVPAVLHQIVAGQPNLSGLDPALRELVESALDKFPDNRPTAQQLLSRLVGQEEMSLDAVHETVVRSWTPPATSRPEAVPSGPNPAAVPAQVGAAAAAPPTQPGTTPPGGQPSATPSAGHPGATPPAGQPAAAPPFPEHSPQTPPWAAPTPPGGNGTEQKTRGTRFSPAIAIAGGSAVALLAGAVIGGLVLFRSPEVPEGMQVYADDFTHQDGWAGYDFDPENTFSWSGYYQGGYALSADGDTRTSTVSVAPPAGLPEQVRVSATTQVVSGPDYGTYGLHCFYNDDGDNVTYYSATVRVDGSAAQIRRHGGEQGSTHLEEVTAKPVSGFLTPSRDAEEAPVNTFDFTCELDPEADTVTLNLWLNGEHVLEAVDTNPLPYDGEDAPQAGMLAGRGIGGGDNIVVVFDDFAVYQLDGGQRERS”, the protein production was “failed”. In the case of “MTRPEASGPPDATRLGHLLGPHGVQGGIKLYVLGDPAQVLALKRVYVESRGWLSLRRAEGMPPNLVLYLAGVSSREGAEELRGLQVYATDAELPDLEEGTFYYHDLRGLEVYGAGGERLGTVSDVMDAGHQDLLVVDYGGGTSFVPLQAPYVEVPLAGGKPGAVHLTADAPAGLIGPEPGEEDGAAESLEHHHHHH”, the protein production is reported as “not failed”. For “MTRPYSLTRYAWLSIFVAIFTMAVKAAAYRVTGSVGLLSDALESIVNLSAAVVALAMLRLSAQPADARHHFGHGKAEYFASGFEGVLILVAAGAILFAAWDRYLHPHELAELDLGLGLSVAAAVVNGLVGWLLVSVGRKAGSIVLEADGKHLLTDVWTSIGVVCGVAAAGLTGWHDFDPGVAALVGLNIVWTGAGLIRRTIAGLLDASLPLEENLKIRGILETFRERGVGFHDLRTRQSGAHRFMSVHLLVPGAWTVQAAHDLAEEIEAELGGALANLTVVTHIEPIEDPASFGHHEPFPETAPEVTNPHPPQTARPLRLKIASVAGAALLLGGGVAGVVVSGVWLDLALAAVLFGFVLILAVQRRGGRQRKAGRQ”, the protein production was “failed”. For “MTRQRNREGLEFTAANAQAVEAFDETVKRYLQFHGDIGGALKATFAHDAQMPMALILRGYFYLLMGLRPLADKAAQLAAGLQPGRAALTEREQRHLDALACWSRDSLQAATEHWERIARAHPRDILAVKMAHFGYFYLGRSARIRDGIAQAIDSWSEDDALYPYMLSMMAFGQVEAGELARGEASGRRALELTPHDPWAVHAVAHALEPTDRKADALAWIARHERHWSEANNFRHHIHWHRALIHLEQGDAQAALDWYDRTVFAADSVEYLDVCNEASLLMRLELSGVDVGRRWEAVAQKSAARIDDQVMGFADVHYAMALCSSANPEHRQQAQALAERLERYSQGGTDNAQAYRQAVVPIVGALLAFRQGRYRESADALLACADVAHAAGGSHDQRDVYEYLTAEALFRAAPAHPDTIAYLARRSFRAPHNPHNWRLYLQSLEQSGQDRTLAAATARRQAAAHATA”, the protein production was “failed”. With “MTRSANPSLFLPLRAAWLALMRFQAKSGFVMSSHVAMSMMMALFPFILFTVALAGSLSQDLVTDDLIQLIFGTWPEQVATPIVAELKAVLAGANSRVMTVGGVLAVYFASNGVDAVREAMSRAYHDAETRPFWKTRLLCIAIVVGGGAIVLAVAAFEVVMPIYTRLVTDALPGAAPDWLSVERLSWIFVVAMPAGAVLACHALLPAGRHPLRRILPGVVLTLVLWAGCGWGFSLYIANFASYSTTYAGLAGAMAALIFLYLNAAILILGAEFNGALMDLSGGPD” the protein production was “not failed”. With “MTRSEAQGRLTGLAPVSVIDIGSNSVRLVVYEGLSRAPAVLFNEKVLCGLGKGLALTGRMHEEGVTRALMALRRFHVLSEQAQAQKLYVLATAAAREAENGPDFIREAEAILGCEIEVLSGEKEALYSAYGVISGFYQPDGIAGDLGGGSLELIDIKDKSCGEGITLPLGGLRLSEQSDGSLEKAATIARKHVKSFAKLLAAGEGRTFYAVGGTWRNIAKLHMEISGYPLHMMQGYELPLEEMLNFLEEVIVSRDSKDPAWQAVSKNRRSLLPFGAIAMREVLRAMKPAKIAFSAQGVREGYLYSLLTEAERESDPLLVAADELAILRARSPEHARELADWSGRTFPVFGIDETEEESRYRQAACLLADISWRAHPDYRGLQALNIIAHSSFVAITHPGRAYIALANYYRFEGLNDNGTTEPLAAMAGERLQELGKLLGGLLRVVYLFSASMPGVVDHLKFRKSDNPDIDLEFVVPHDYCDFAGERLDGRLQQLAKLTGKRLAFVFE” the protein production was “not failed”. In the case of “MTRSRRGALARSSEGGPFPTADPVADRALCGWRVRSVIDLPELPLWTRDDRLPDVTIAFGRVTPVESASPGMNWHVVGEGRFRFTVASVGSYRISRGRVITIDPQAGVVASAVRQYLLGTAFGVLCHQRGLLPLHASCVAINGRAVAIAGASGAGKSSLAAALVRLGYPLLGDDVCVIDASEINAPHVLPAIPRLKLWRDVLDTFGLIVDPAARILEGIDKYQAQALADRPPPPPPQVPLPLGVVYYLDQAESPDDEGFHAIRGAERAAALAGAVYRRKMGLAMGLLPQIFTATMTVGALVPGHRLLRHGDLSGLDALARSVAARQEGRGLEHHHHHH”, the protein production is reported as “failed”.
